# B1: Amphiregulin (Homo sapiens), P15514 (parent)
# chain: MRAPLLPPAPVVLSLLILGSGHYAAGLDLNDTYSGKREPFSGDHSADGFEVTSRSEMSSGSEISPVSEMPSSSEPSSGADYDYSEEYDNEPQIPGYIVDDSVRVEQVVKPPQNKTESENTSDKPKRKKKGGKNGKNRRNRKKKNPCNAEFQNFCIHGECKYIEHLEAVTCKCQQEYFGERCGEKSMKTHSMIDSSLSKIALAAIAAFMSAVILTAVAVITVQLRRQYVRKYEGEAEERKKLRQENGNVHAIA
# Variants of: B1
# Details: with S100A4, P26447
# Chain of S100A4, P26447 (P26447 whole entry, looked up): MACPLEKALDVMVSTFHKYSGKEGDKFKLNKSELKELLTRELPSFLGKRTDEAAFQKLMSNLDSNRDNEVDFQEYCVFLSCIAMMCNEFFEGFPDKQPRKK
row,effect of a mutation on the interaction,Variant
1,decreasing interaction,MRAPLLPPAPVVLSLLILGSGHYAAGLDLNDTYSGKREPFSGDHSADGFEVTSRSEMSSGSEISPVSEMPSSSEPSSGADYDYSEEYDNEPQIPGYIVDDSVRVEQVVKPPQNKTESENTSDKPKRKKKGGKNGKNRRNRKKKNPCNAEFQNFCIHGECKYIEHLEAVTCKLQQEYFGERCGEKSMKTHSMIDSSLSKIALAAIAAFMSAVILTAVAVITVQLRRQYVRKYEGEAEERKKLRQENGNVHAIA [C172L]
2,decreasing interaction,MRAPLLPPAPVVLSLLILGSGHYAAGLDLNDTYSGKREPFSGDHSADGFEVTSRSEMSSGSEISPVSEMPSSSEPSSGADYDYSEEYDNEPQIPGYIVDDSVRVEQVVKPPQNKTESENTSDKPKRKKKGGKNGKNRRNRKKKNPCNAEFQNFCIHGECKYIEHLEAVTAKCQQEYFGERCGEKSMKTHSMIDSSLSKIALAAIAAFMSAVILTAVAVITVQLRRQYVRKYEGEAEERKKLRQENGNVHAIA [C170A]
3,decreasing interaction,MRAPLLPPAPVVLSLLILGSGHYAAGLDLNDTYSGKREPFSGDHSADGFEVTSRSEMSSGSEISPVSEMPSSSEPSSGADYDYSEEYDNEPQIPGYIVDDSVRVEQVVKPPQNKTESENTSDKPKRKKKGGKNGKNRRNRKKKNPCNAEFQNFCIHGECKYIEHLEAVTCACQQEYFGERCGEKSMKTHSMIDSSLSKIALAAIAAFMSAVILTAVAVITVQLRRQYVRKYEGEAEERKKLRQENGNVHAIA [K171A]

# Variants of: B1
# Details: with S100A4, P26447
# Remark: another data set of the same source
row,effect of a mutation on the interaction,Variant
1,decreasing interaction,MRAPLLPPAPVVLSLLILGSGHYAAGLDLNDTYSGKREPFSGDHSADGFEVTSRSEMSSGSEISPVSEMPSSSEPSSGADYDYSEEYDNEPQIPGYIVDDSVRVEQVVKPPQNKTESENTSDKPKRKKKGGKNGKNRRNRKKKNPCNAEFQNFAIHGECKYIEHLEAVTCKCQQEYFGERCGEKSMKTHSMIDSSLSKIALAAIAAFMSAVILTAVAVITVQLRRQYVRKYEGEAEERKKLRQENGNVHAIA [C154A]
2,decreasing interaction,MRAPLLPPAPVVLSLLILGSGHYAAGLDLNDTYSGKREPFSGDHSADGFEVTSRSEMSSGSEISPVSEMPSSSEPSSGADYDYSEEYDNEPQIPGYIVDDSVRVEQVVKPPQNKTESENTSDKPKRKKKGGKNGKNRRNRKKKNPCNAEFQNLCIHGECKYIEHLEAVTCKCQQEYFGERCGEKSMKTHSMIDSSLSKIALAAIAAFMSAVILTAVAVITVQLRRQYVRKYEGEAEERKKLRQENGNVHAIA [F153L]
